Source: patent US20170157251A1 (MacroGenics, published 2017)

What was measured:
[1] = target: cynomolgus monkey CD19 on B cells (cynomolgus monkey); experiment: cell-based or functional assay
[2] = target: T1, Cynomolgus CD19-His (cynomolgus monkey, UniProt A0A2K5W8L9 20-292); experiment: SPR (BIAcore), DART-A 0-100 nM, soluble antigen
T1 construct: Soluble antigen in SPR; also called soluble cynomolgus monkey CD19; not shown: His tag
T1 sequence: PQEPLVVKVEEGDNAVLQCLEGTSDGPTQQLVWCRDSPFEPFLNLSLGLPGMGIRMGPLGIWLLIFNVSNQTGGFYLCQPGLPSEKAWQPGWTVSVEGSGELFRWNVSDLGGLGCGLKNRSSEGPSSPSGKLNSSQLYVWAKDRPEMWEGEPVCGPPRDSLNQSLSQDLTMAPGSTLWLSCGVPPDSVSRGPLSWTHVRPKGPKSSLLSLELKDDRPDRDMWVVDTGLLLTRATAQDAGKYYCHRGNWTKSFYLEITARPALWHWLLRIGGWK

[3] = target: T2, Human CD19-His (human, UniProt P15391 20-291, limits assumed); experiment: SPR (BIAcore), DART-A 0-100 nM, soluble antigen
T2 construct: Soluble antigen in SPR; also called soluble human CD19; not shown: His tag
T2 sequence (looked up): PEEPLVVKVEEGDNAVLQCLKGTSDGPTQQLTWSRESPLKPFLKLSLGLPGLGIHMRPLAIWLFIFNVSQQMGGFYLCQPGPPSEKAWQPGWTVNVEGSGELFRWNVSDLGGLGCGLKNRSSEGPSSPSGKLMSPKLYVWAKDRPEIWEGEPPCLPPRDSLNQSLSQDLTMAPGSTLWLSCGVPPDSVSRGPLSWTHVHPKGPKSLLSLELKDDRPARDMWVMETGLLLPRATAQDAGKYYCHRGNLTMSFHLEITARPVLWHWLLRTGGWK

[4] = target: T3, human CD19 on cells (human, UniProt P15391 20-556); experiment: cell-based or functional assay
T3 sequence (looked up): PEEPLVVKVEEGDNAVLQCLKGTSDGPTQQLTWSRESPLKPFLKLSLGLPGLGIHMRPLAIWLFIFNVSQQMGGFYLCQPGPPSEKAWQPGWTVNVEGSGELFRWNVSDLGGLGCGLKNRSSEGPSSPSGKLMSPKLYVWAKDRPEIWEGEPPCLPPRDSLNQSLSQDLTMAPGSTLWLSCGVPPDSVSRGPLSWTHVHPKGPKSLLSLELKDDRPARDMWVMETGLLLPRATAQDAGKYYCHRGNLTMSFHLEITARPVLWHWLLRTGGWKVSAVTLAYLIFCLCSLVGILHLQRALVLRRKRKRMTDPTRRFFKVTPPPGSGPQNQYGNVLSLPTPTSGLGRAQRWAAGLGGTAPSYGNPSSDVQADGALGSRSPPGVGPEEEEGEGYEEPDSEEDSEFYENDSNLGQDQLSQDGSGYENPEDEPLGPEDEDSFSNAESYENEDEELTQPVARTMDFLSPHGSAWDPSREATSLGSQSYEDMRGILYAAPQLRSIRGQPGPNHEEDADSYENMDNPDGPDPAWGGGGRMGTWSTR

[5] = target: T3, human CD19 on cells; experiment: cell-based or functional assay; remark: listed apart in the source

B1: DART-A (CD19×CD3 bi-specific monovalent Fc diabody) (bispecific antibody)
chain 1: ENVLTQSPATLSVTPGEKATITCRASQSVSYMHWYQQKPGQAPRLLIYDASNRASGVPSRFSGSGSGTDHTLTISSLEAEDAATYYCFQGSVYPFTFGQGTKLEIKGGGSGGGGEVQLVESGGGLVQPGGSLRLSCAASGFTFSTYAMNWVRQAPGKGLEWVGRIRSKYNNYATYYADSVKGRFTISRDDSKNSLYLQMNSLKTEDTAVYYCVRHGNFGNSYVSWFAYWGQGTLVTVSSASTKGEVAACEKEVAALEKEVAALEKEVAALEKGGGDKTHTCPPCPAPEAAGGPSVFLFPPKPKDTLMISRTPEVTCVVVDVSHEDPEVKFNWYVDGVEVHNAKTKPREEQYNSTYRVVSVLTVLHQDWLNGKEYKCKVSNKALPAPIEKTISKAKGQPREPQVYTLPPSREEMTKNQVSLWCLVKGFYPSDIAVEWESNGQPENNYKTTPPVLDSDGSFFLYSKLTVDKSRWQQGNVFSCSVMHEALHNHYTQKSLSLSPGK
chain 2: QAVVTQEPSLTVSPGGTVTLTCRSSTGAVTTSNYANWVQQKPGQAPRGLIGGTNKRAPWTPARFSGSLLGGKAALTITGAQAEDEADYYCALWYSNLWVFGGGTKLTVLGGGGSGGGGQVTLRESGPALVKPTQTLTLTCTFSGFSLSTSGMGVGWIRQPPGKALEWLAHIWWDDDKRYNPALKSRLTISKDTSKNQVFLTMTNMDPVDTATYYCARMELWSYYFDYWGQGTTVTVSSASTKGKVAACKEKVAALKEKVAALKEKVAALKE
chain 3: not shown
notes: Three covalently bonded chains; one CD19 site and one CD3 site; Fc with L234A/L235A, knob/hole, H435R on third chain; also called CD19×CD3 bi-specific molecule; CD19×CD3 bi-specific DART-A
EC50 of autologous B cell depletion, cynomolgus monkey PBMCs, donor Cyno 8 (E:T = 7:1) [1]: 239 pM | mean EC50 of autologous B cell depletion, cynomolgus monkey PBMCs [1]: 343 pM | Kd [2]: 20300 pM | koff [2]: 0.0047 s⁻¹ | kon [2]: 240000 M⁻¹ s⁻¹ | Kd [3]: 2000 pM | koff [3]: 0.00056 s⁻¹ | kon [3]: 280000 M⁻¹ s⁻¹ | EC50 of redirected killing of Raji/GF cells, T cells cultured 24 hours with 0 nM ibrutinib, E:T 10:1, 24 hours [4]: 0.042 ng/mL | EC50 of redirected killing of Raji/GF cells, T cells cultured 48 hours with 0 nM ibrutinib, E:T 10:1, 24 hours [4]: 0.0016 ng/mL | EC50 of redirected killing of Raji/GF cells, T cells cultured 72 hours with 0 nM ibrutinib, E:T 10:1, 24 hours [4]: 0.0031 ng/mL | EC50 of redirected killing of Raji/GF cells, T cells pretreated 24 hours with 25 nM ibrutinib [4]: 0.028 ng/mL | EC50 of redirected killing of Raji/GF cells, T cells pretreated 24 hours with 250 nM ibrutinib [4]: 0.033 ng/mL | EC50 of redirected killing of Raji/GF cells, T cells pretreated 24 hours with 750 nM ibrutinib [4]: 0.037 ng/mL | EC50 of redirected killing of Raji/GF cells, T cells pretreated 24 hours with 2500 nM ibrutinib [4]: 0.104 ng/mL | EC50 of redirected killing of Raji/GF cells, T cells pretreated 48 hours with 25 nM ibrutinib [4]: 0.0015 ng/mL | EC50 of redirected killing of Raji/GF cells, T cells pretreated 48 hours with 250 nM ibrutinib [4]: 0.0011 ng/mL | EC50 of redirected killing of Raji/GF cells, T cells pretreated 48 hours with 750 nM ibrutinib [4]: 0.0012 ng/mL | EC50 of redirected killing of Raji/GF cells, T cells pretreated 48 hours with 2500 nM ibrutinib [4]: 0.0044 ng/mL | EC50 of redirected killing of Raji/GF cells, T cells pretreated 72 hours with 25 nM ibrutinib [4]: 0.0021 ng/mL | EC50 of redirected killing of Raji/GF cells, T cells pretreated 72 hours with 250 nM ibrutinib [4]: 0.002 ng/mL | EC50 of redirected killing of Raji/GF cells, T cells pretreated 72 hours with 750 nM ibrutinib [4]: 0.0018 ng/mL | EC50 of redirected killing of Raji/GF cells, T cells pretreated 72 hours with 2500 nM ibrutinib [4]: 0.0085 ng/mL | mean EC50 of IFN-γ release, CTL assay, purified human T cells with Raji/GF tumor cells (E:T = 10:1), n = 2 [5]: 5.51 pM | mean EC50 of IL-2 release, CTL assay, purified human T cells with Raji/GF tumor cells (E:T = 10:1), n = 2 [5]: 6.32 pM | mean EC50 of TNF-α release, CTL assay, purified human T cells with Raji/GF tumor cells (E:T = 10:1), n = 2 [5]: 3.71 pM | mean EC50 of cytotoxicity, CTL assay, HBL-2 (n = 5), human T cells E:T = 10:1 [5]: 0.11 pM | mean EC50 of cytotoxicity, CTL assay, Jeko-1 (n = 3), human T cells E:T = 10:1 [5]: 0.15 pM | mean EC50 of cytotoxicity, CTL assay, Raji/GF (n = 5), human T cells E:T = 10:1 [5]: 0.31 pM
